Measurements taken from patent US6582689B1, “IL-18/IGIF chemotherapeutic compositions” (Smithkline Beecham Corporation, priority 1998, dated 2003).
Entries after “also recorded” stand apart in the source; their conditions may differ. Like-named read-outs stand apart in the source and are kept apart here.

Assays:
B16F10 melanoma [1] = assay: advanced subcutaneous B16F10 melanoma (Example VI); assay type: in vivo, mice
Protocol: In this experiment, IL-18 was evaluated in an advanced syngeneic tumor model alone and in combination with chemotherapy. Mice bearing advanced subcutaneous B16F10 melanoma were treated with IL-18 alone or in combination with either cyclophosphamide or topotecan. Treatment was initiated on Day 11 postimplantation.

B16F10 melanoma [2] = assay: advanced subcutaneous B16F10 melanoma, repeat with cyclophosphamide (Example VII); assay type: in vivo, mice; settings: for regressions: treatment from median 100 mm^3 (Day 14)
[3] = system: mammary adenocarcinoma 16/c; assay: subcutaneous mammary adenocarcinoma 16/c, IL-18 and doxorubicin (Example IX); assay type: in vivo, mouse; settings: for regressions: alone or combined
Protocol: (§1) An experiment was conducted to determine the effectiveness of IL-18 on its own and in combination with doxorubicin in the 16/c mammary adenocarcinoma tumor model. The 16/c line was implanted subcutaneously at a 1:10 brei and allowed to grow to a median of 52-109 mm^3 before initiation of treatment. Doxorubicin was administered intravenously on Days 12 and 19 at 7.2, 12, and 20 mg/kg. IL-18 was administered subcutaneously at 1, 10, and 100 μg/mouse on a qD×21 schedule starting from Day 12. The endpoints of this study were tumor growth delay and regression.

[4] = mouse, in vivo
Protocol: as §1

[5] = toxicity and toxic deaths in the 16/c experiment (Example IX)
Protocol: as §1

[6] = system: Madison 109 lung carcinoma; assay: subcutaneous Madison 109 lung carcinoma, IL-18 and paclitaxel (Example VIII); assay type: in vivo, mouse; settings: for regressions: alone or combined
[7] = paclitaxel 24 mg/kg iv qD×5
MOPC-315 plasmacytoma [8] = assay: established subcutaneous MOPC-315 plasmacytoma (Example III); assay type: in vivo, BALB/c mice
Protocol: The MOPC-315 plasmacytoma is analogous to the human cancer known as multiple myeloma. This tumor is a malignancy of the plasma cells, a mature form of B lymphocytes involved in antibody expression. MOPC-315 grows rapidly to a very large size in syngeneic BALB/c mice. It is not highly metastatic or invasive.
IL-18 was evaluated in mice bearing established subcutaneous MOPC-315 plasmacytoma. In order to increase chances of seeing an effect of immunotherapy, IL-18 was evaluated in combination with an effective chemotherapeutic agent as well as by monotherapy. IL-18 at 0.3, 1, 3, and 10 μg/mouse was administered daily intraperitonealy and topotecan was administered intraperitonealy on a q4D schedule at 9 and 15 mg/kg. Both drugs were started on Day 11 postimplantation when the median tumor volume ranged from 32 to 88 mg. Control tumors took 17.2 days to grow to 1 gram. (See FIGS. 5-7).

MOPC-315 plasmacytoma [9] = assay: advanced MOPC-315 plasmacytoma, confirmation with higher IL-18 doses (Example IV); assay type: in vivo, mice
Protocol: The activity of IL-18 in combination with topotecan in mice bearing advanced MOPC-315 plasmacytoma was confirmed in a large experiment in which higher doses of IL-18 were used. In this experiment, topotecan was administered q4D×6 beginning on Day 10 and IL-18 was given qD×30 beginning on the same day. Both drugs were administered intraperitonealy and activity was assessed by tumor measurements.

Lewis lung carcinoma [10] = system: Lewis lung carcinoma
Protocol: Treatment was delayed until Day 7 when tumors were established and growing in the lungs. Half of the mice in each group were killed on Day 16 to determine effects of treatment on pulmonary tumor growth, the remaining mice were continued under treatment and monitored for survival. […] Topotecan was administered intraperitonealy q4D×7 beginning on Day 7 and ending on Day 32 and the doses shown are in mg/kg. Murine IL-18 was administered intraperitonealy UID from Day 7 to Day 32 and the doses shown are μg/mouse. There were 3 groups of control animals, all of which died between Day 17 and 30.

Lewis lung carcinoma [11] = assay: advanced systemic Lewis lung carcinoma, confirmation with higher IL-18 doses (Example II); settings: for tumor weight and nodule count: Day 14
Protocol: This experiment included the use of higher doses of IL-18. […] The remaining mice were continued under treatment and monitored for survival. Topotecan was administered intraperitonealy q4D×6 on Days 7, 11, 15, 19, 23, and 29; dosage levels shown are mg/kg. Murine IL-18 was administered intraperitonealy qD×26 from Day 7 to Day 33; dosage levels shown are μg/mouse.

MOPC-315 plasmacytoma [12] = assay: advanced MOPC-315 plasmacytoma, schedule and route study (Example V); assay type: in vivo, mice
Protocol: The evaluation of IL-18 in combination with chemotherapy was repeated to establish: (a) how effective is IL-18 in tumor models when given subcutaneously and (b) whether IL-18 is active when given on an intermittent schedule or whether daily treatment is necessary. The experiment was set up again with topotecan in the advanced MOPC-315 plasmacytoma model with treatment starting on Day 10 when tumors were about 100 mm^3 in volume. Topotecan was given at its MTD of 15 mg/kg on a q4D regimen and IL-18 was given over a broad dosage range either intraperitonealy or subcutaneously on a q1D or q4D regimen. […] However, IL-18 was continued. (See FIGS. 11-13).

colon 26 adenocarcinoma = settings: Hanaya et al. 1996; cited from earlier work
[13] = cyclophosphamide MTD 300 mg/kg q7D
[14] = topotecan MTD 15 mg/kg ip q4D from Day 11
[15] = topotecan MTD 15 mg/kg q4D, Day 16
[16] = topotecan 9 mg/kg ip q4D×6 from Day 7
[17] = topotecan 15 mg/kg ip q4D×6 from Day 7
[18] = IL-18 0.3 μg/mouse ip UID Day 7-32
[19] = IL-18 1 μg/mouse ip UID Day 7-32
[20] = IL-18 3 μg/mouse ip UID Day 7-32
[21] = IL-18 10 μg/mouse ip UID Day 7-32
[22] = IL-18 alone 0.3-10 μg/mouse ip UID, Day 16, no clear dose-response
[23] = IL-18 1 μg/mouse ip qD×26 Day 7-33
[24] = IL-18 3 μg/mouse ip qD×26 Day 7-33
[25] = IL-18 10 μg/mouse ip qD×26 Day 7-33
[26] = IL-18 30 μg/mouse ip qD×26 Day 7-33
[27] = IL-18 100 μg/mouse ip qD×26 Day 7-33

O=P1(N(CCCl)CCCl)NCCCO1 (stereo not shown) [Cyclophosphamide, cyclophosphamide]
increase in survival (B16F10 melanoma [1]; [13]): 95%
tumor growth delay (B16F10 melanoma [1]; [13]): 14 days
tumor growth delay (B16F10 melanoma [2]; cyclophosphamide MTD): 14 days
tumor growth delay (B16F10 melanoma [2]; cyclophosphamide suboptimal dose 180 mg/kg): 4 days
regressions (B16F10 melanoma [2]): no regressions

COc1cccc2c1C(=O)c1c(O)c3c(c(O)c1C2=O)C[C@@](O)(C(=O)CO)C[C@@H]3O[C@H]1C[C@H](N)[C@H](O)[C@H](C)O1 [Doxorubicin, doxorubicin]
regressions [3]: no regressions
tumor growth delay ([3]; doxorubicin 7.2, 12, 20 mg/kg iv): dose-dependent tumor growth delay
efficacy ([3]; doxorubicin at 1/3 of its MTD): little or no efficacy
weight loss [4]: no weight loss
MTD ([5]; mouse, in vivo, iv): 20 mg/kg

CC(=O)O[C@H]1C(=O)[C@@]2(C)[C@H]([C@H](OC(=O)c3ccccc3)[C@]3(O)C[C@H](OC(=O)[C@H](O)[C@@H](NC(=O)c4ccccc4)c4ccccc4)C(C)=C1C3(C)C)[C@]1(OC(C)=O)CO[C@@H]1C[C@@H]2O [Paclitaxel, paclitaxel, reference compound]
regressions [6]: no regressions
ILS (increased life span) ([6]; paclitaxel 12 mg/kg iv qD×5): 27% ILS
T-C: tumor growth delay ([6]; paclitaxel 12 mg/kg iv qD×5 (Days 9-13)): T-C 3.5 days,
ILS (increased life span) ([6]; paclitaxel 24 mg/kg iv qD×5): 35% ILS
T-C: tumor growth delay ([6]; paclitaxel 24 mg/kg iv qD×5): T-C 9.7 days,
survival ([6]; paclitaxel alone): minimal prolongation of survival
tumor growth delay ([6]; paclitaxel alone): minimal tumor growth delay
body weight loss [7]: 4.7 g

CC[C@@]1(O)C(=O)OCc2c1cc1n(c2=O)Cc2cc3c(CN(C)C)c(O)ccc3nc2-1 [Topotecan, topotecan, reference compound]
regressions (MOPC-315 plasmacytoma [8]; topotecan 9 mg/kg ip q4D): no regressions
tumor growth delay (MOPC-315 plasmacytoma [8]; topotecan 9 mg/kg ip q4D): 4 days
complete regressions (MOPC-315 plasmacytoma [8]; [14]): 1/7
tumor growth delay (MOPC-315 plasmacytoma [8]; [14]): about 12 days
complete regressions (MOPC-315 plasmacytoma [9]; topotecan MTD alone ip q4D×6 from Day 10): 2/6
effect on tumor (MOPC-315 plasmacytoma [9]; topotecan suboptimal dose alone): virtually no effect
antitumor activity (B16F10 melanoma [1]; topotecan at its MTD): inactive
Increase in Lifespan (Lewis lung carcinoma [10]; topotecan 9.0 mg/kg (0.6×MTD) ip q4D×7 from Day 7): 63%
Median Survival Time (Lewis lung carcinoma [10]; topotecan 9.0 mg/kg ip q4D×7 from Day 7): 36 days
Increase in Lifespan (Lewis lung carcinoma [10]; topotecan 15 mg/kg (MTD) ip q4D×7 from Day 7): 68%
Median Survival Time (Lewis lung carcinoma [10]; topotecan 15 mg/kg ip q4D×7 from Day 7): 37 days
average number of pulmonary tumor nodules (Lewis lung carcinoma [10]; [15]): 45
suppression of tumor growth (Lewis lung carcinoma [10]; [15]): > 90%
Increase in Lifespan (Lewis lung carcinoma [11]; [16]): 42%
Median Survival Time (Lewis lung carcinoma [11]; [16]): 25.5 days
Increase in Lifespan (Lewis lung carcinoma [11]; [17]): 86%
Median Survival Time (Lewis lung carcinoma [11]; [17]): 33.5 days
tumor weight and nodule count (Lewis lung carcinoma [11]; topotecan MTD 15 mg/kg): good reduction in tumor weight and nodule count
tumor weight and nodule count (Lewis lung carcinoma [11]; topotecan lower dose 9 mg/kg): lesser effect on both parameters

B1: IL-18: cytokine, interferon-γ-inducing factor; murine IL-18 (SEQ ID NO:2) was administered to mice (protein)
chain: NFGRLHCTTAVIRNINDQVLFVDKRQPVFEDMTDIDQSASEPQTRLIIYMYKDSEVRGLAVTLSVKDSKMSTLSCKNKIISFEEMDPPENIDDIQSDLIFFQKRVPGHNKMEFESSLYEGHFLACQKEDDAFKLILKKKDENGDKSVMFTLTNLHQS
modifications: Mouse
tumor growth delay (MOPC-315 plasmacytoma [8]; IL-18 alone 0.3, 1, 3, 10 μg/mouse daily ip from Day 11): 1.3 to 3.1 days
effect on tumor growth of established tumors (MOPC-315 plasmacytoma [8]; IL-18 alone 0.3-10 μg/mouse daily ip from Day 11): only a minimal effect on the tumor growth; also recorded: no effect of IL-18 alone on tumor growth
complete regressions (MOPC-315 plasmacytoma [9]; IL-18 alone 100 μg/mouse/day ip qD×30 from Day 10): 4 of 6
effect on tumor (MOPC-315 plasmacytoma [9]; IL-18 alone, doses lower than 100 μg/mouse/day): ineffective
antitumor activity (MOPC-315 plasmacytoma [12]; IL-18 alone q1D 100 μg/day, ip and sc): active
route comparison (MOPC-315 plasmacytoma [12]; IL-18 alone q1D 100 μg/day, ip versus sc): intraperitoneal was more effective
induction of regression (MOPC-315 plasmacytoma [12]; IL-18 alone, intermittent, 1000 or 100 μg/dose): ineffective in inducing regression
ILS (effect on survival time) (B16F10 melanoma [1]; IL-18 alone from Day 11): < 30%
effect on tumor growth (B16F10 melanoma [1]; IL-18 alone from Day 11): no effect on tumor growth
tumor growth delay (B16F10 melanoma [2]; IL-18 alone): about 2 days
regressions (B16F10 melanoma [2]): no regressions
T-C: tumor growth delay ([6]; IL-18 1 μg sc qD×21): T-C 1.7 days,
ILS (increased life span) ([6]; IL-18 10 μg sc qD×21): 12% ILS
T-C: tumor growth delay ([6]; IL-18 10 μg sc qD×21): T-C 2.1 days,
ILS (increased life span) ([6]; IL-18 100 μg sc qD×21): 0% ILS
T-C: tumor growth delay ([6]; IL-18 100 μg sc qD×21): T-C 2.8 days,
tumor growth ([6]; IL-18 alone at the low dose): without delaying tumor growth
regressions [6]: no regressions
tumor growth delay ([3]; IL-18 alone 1-100 μg/mouse, no dose-response): less than a week
regressions [3]: no regressions
Increase in Lifespan (Lewis lung carcinoma [10]; [18]): 0%
Median Survival Time (Lewis lung carcinoma [10]; [18]): 22 days
Increase in Lifespan (Lewis lung carcinoma [10]; [19]): 2%
Median Survival Time (Lewis lung carcinoma [10]; [19]): 22.5 days
Increase in Lifespan (Lewis lung carcinoma [10]; [20]): 4%
Median Survival Time (Lewis lung carcinoma [10]; [20]): 23 days
Increase in Lifespan (Lewis lung carcinoma [10]; [21]): 9%
Median Survival Time (Lewis lung carcinoma [10]; [21]): 24 days
effect on survival time (Lewis lung carcinoma [10]; IL-18 alone 0.3-10 μg/mouse ip UID): no effect on survival time; also recorded: did not have an enhanced median survival time
lung tumor nodule count (Lewis lung carcinoma [10]; [22]): significantly decreased
lung tumor weight (Lewis lung carcinoma [10]; [22]): significantly decreased
metastasis and growth of tumor (colon 26 adenocarcinoma): inhibit the metastasis and growth of colon 26 adenocarcinoma
toxicity ([5]; IL-18 1 μg/mouse qD×21 from Day 12): Not Toxic
toxicity ([5]; IL-18 10 μg/mouse qD×21 from Day 12): Not Toxic
toxicity ([5]; IL-18 100 μg/mouse qD×21 from Day 12): Not Toxic
Increase in Lifespan (Lewis lung carcinoma [11]; [23]): 11%
Median Survival Time (Lewis lung carcinoma [11]; [23]): 20 days
Increase in Lifespan (Lewis lung carcinoma [11]; [24]): 0%
Median Survival Time (Lewis lung carcinoma [11]; [24]): 18 days
Increase in Lifespan (Lewis lung carcinoma [11]; [25]): 0%
Median Survival Time (Lewis lung carcinoma [11]; [25]): 18 days
Increase in Lifespan (Lewis lung carcinoma [11]; [26]): 3%
Median Survival Time (Lewis lung carcinoma [11]; [26]): 18.5 days
Increase in Lifespan (Lewis lung carcinoma [11]; [27]): 22%
Median Survival Time (Lewis lung carcinoma [11]; [27]): 22 days
